From the supplement of paper PMC7125110
± gives the standard error. For part of these data: Fewer inactive variants are shown than the library holds.

B1: glmS ribozyme (parent)
chain: AUAAAAGCGCCAGAACUACAGAAAUGUAGUUGACGAGGAGGAGGUUUAUCGAAUUUUCGGCGGAUGCCUCCAAA

Experiments:
Conditions in all cases: with glucosamine-6-phosphate
glucosamine-6-phosphate [1] = variants of: B1; experiment: kcat; higher = faster cleavage; RNA array
Outline: (§1)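 Over ~14 h at 37 °C, tiles were imaged as glucosamine-6-phosphate (40 μM to 10 mM) in HEPES/KCl/Mg(OAc)2 buffer flowed across sequenced MiSeq chips. The chips carried barcoded ribozyme variants transcribed in situ by E. coli RNA polymerase and tracked with a hybridised Cy3 probe. After normalisation to baseline and to non-cleaving reference variants, one- or two-exponential decay fits of per-tile medians gave kobs. kcat and KM followed from weighted Michaelis–Menten fits across concentrations.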

glucosamine-6-phosphate [2] = variants of: B1; experiment: KM; higher = weaker cofactor use; RNA array
Outline: as §1

glucosamine-6-phosphate [3] = variants of: B1; experiment: self-cleavage kobs at 40 uM GlcN6P; higher = faster cleavage; RNA array
Outline: as §1

glucosamine-6-phosphate [4] = variants of: B1; experiment: self-cleavage kobs at 640 uM GlcN6P; higher = faster cleavage; RNA array
Outline: as §1

glucosamine-6-phosphate [5] = variants of: B1; experiment: self-cleavage kobs at 2500 uM GlcN6P; higher = faster cleavage; RNA array
Outline: as §1

glucosamine-6-phosphate [6] = variants of: B1; experiment: self-cleavage kobs at 10000 uM GlcN6P; higher = faster cleavage; RNA array
Outline: as §1

glucosamine-6-phosphate [7] = variants of: B1; experiment: self-cleavage kobs at 160 uM GlcN6P; higher = faster cleavage; RNA array
Outline: as §1

Variant | kcat (glucosamine-6-phosphate [1]) [s⁻¹] | KM (glucosamine-6-phosphate [2]) [µM] | self-cleavage kobs at 40 uM GlcN6P (glucosamine-6-phosphate [3]) [s⁻¹] | self-cleavage kobs at 640 uM GlcN6P (glucosamine-6-phosphate [4]) [s⁻¹] | self-cleavage kobs at 2500 uM GlcN6P (glucosamine-6-phosphate [5]) [s⁻¹] | self-cleavage kobs at 10000 uM GlcN6P (glucosamine-6-phosphate [6]) [s⁻¹] | self-cleavage kobs at 160 uM GlcN6P (glucosamine-6-phosphate [7]) [s⁻¹]
U45A U47C | 0.00985 ± 0.0035 | 2660 ± 1300 | 0.00017 ± 4.6e-05 | 0.00165 ± 0.00043 | 0.0091 ± 0.0044 | 0.00776 ± 0.0024 | –
U65A U69A | 7.76e-05 ± 5.6e-06 | 134 ± 50 | – | 6.97e-05 ± 1.3e-05 | 7.08e-05 ± 1.2e-05 | – | 4.06e-05 ± 1.5e-05
C16G G40U | 0.00053 ± 2.1e-05 | 4960 ± 340 | – | 6.22e-05 ± 1.1e-05 | 0.000171 ± 2.7e-05 | 0.000357 ± 4.2e-05 | –
G40U C67A | 0.000158 ± 6.3e-05 | – | – | 7.75e-05 ± 1.4e-05 | 9.78e-05 ± 1.7e-05 | 0.000218 ± 5.5e-05 | –
U30C A39G | 0.00121 ± 0.00015 | 3930 ± 730 | – | 0.00016 ± 2.7e-05 | 0.00046 ± 6.8e-05 | 0.000888 ± 0.00014 | 5.74e-05 ± 1.6e-05
C11A C61G | 1.14e-05 ± 3.7e-06 | – | < 1e-05 | – | – | – | –
G44C U55C | 3.25e-05 ± 2.5e-06 | – | – | 2.79e-05 ± 1.3e-05 | – | – | –
C34G C67G | 4.36e-05 ± 2.1e-05 | – | – | – | 4.65e-05 ± 1.9e-05 | – | –
G9A A12U | 5.42e-05 ± 3.1e-06 | – | – | – | – | 2.41e-05 ± 1e-05 | < 1e-05
A6G A64G | 1.81e-05 ± 5.8e-06 | – | < 1e-05 | – | – | – | –
C10G C58A | 1.01e-05 ± 1.8e-06 | – | – | < 1e-05 | – | < 1e-05 | –
A12U G59U | 1.03e-05 ± 1e-06 | – | – | – | – | – | –
A12C U56A | 0.0197 ± 0.004 | 4980 ± 1400 | 0.00021 ± 2.5e-05 | 0.00217 ± 0.00031 | 0.0059 ± 0.00083 | 0.0135 ± 0.0011 | 0.000528 ± 7.5e-05
A6U U47G | 5.58e-05 ± 2.6e-06 | 564 ± 180 | – | – | 4.79e-05 ± 7.2e-06 | 5.16e-05 ± 6.8e-06 | –
A48G | 0.000117 ± 1.3e-05 | 845 ± 350 | – | 4.49e-05 ± 1.5e-06 | 0.00011 ± 2.2e-06 | 0.000103 ± 1.5e-06 | 1.61e-05 ± 3.1e-06
U31G U69G | 5.43e-05 ± 8.8e-06 | – | – | 5.73e-05 ± 1.2e-05 | 5.24e-05 ± 7.9e-06 | 4.43e-05 ± 1e-05 | 9.12e-05 ± 1.7e-05
U46C A52G | 0.000634 ± 0.00015 | 5990 ± 2100 | – | 7.1e-05 ± 1.4e-05 | 0.000161 ± 3.6e-05 | 0.000412 ± 7e-05 | –

Variant | kcat (glucosamine-6-phosphate [1]) [s⁻¹] | KM (glucosamine-6-phosphate [2]) [µM] | self-cleavage kobs at 40 uM GlcN6P (glucosamine-6-phosphate [3]) [s⁻¹] | self-cleavage kobs at 640 uM GlcN6P (glucosamine-6-phosphate [4]) [s⁻¹] | self-cleavage kobs at 2500 uM GlcN6P (glucosamine-6-phosphate [5]) [s⁻¹] | self-cleavage kobs at 10000 uM GlcN6P (glucosamine-6-phosphate [6]) [s⁻¹] | self-cleavage kobs at 160 uM GlcN6P (glucosamine-6-phosphate [7]) [s⁻¹]
U47C G51U | < 1e-05 | – | – | < 1e-05 | – | < 1e-05 | –
U30G U65C | 0.000117 ± 2.1e-05 | – | – | 4.91e-05 ± 1.7e-05 | 0.000122 ± 2.6e-05 | 9.72e-05 ± 2.2e-05 | –
A12G C70U | 0.00188 ± 0.00036 | 4460 ± 1400 | 1.71e-05 ± 6.8e-06 | 0.00025 ± 2.2e-05 | 0.00055 ± 4.3e-05 | 0.00139 ± 7.5e-05 | 7.66e-05 ± 6.8e-06
A42U C70U | 0.000154 ± 2e-05 | 1640 ± 560 | – | 3.64e-05 ± 7.2e-06 | 0.000112 ± 1.2e-05 | 0.000126 ± 1.2e-05 | –
G32C A42G | 0.000211 ± 3.7e-05 | – | – | – | 3.92e-05 ± 9.5e-06 | 0.000103 ± 1.3e-05 | –
A14U C70A | 0.000118 ± 4.4e-06 | 568 ± 71 | – | 6.15e-05 ± 8e-06 | 9.59e-05 ± 1e-05 | 0.000112 ± 1.1e-05 | 2.57e-05 ± 8.7e-06
C8A G37C G38A C70U | 1.14e-05 ± 3.5e-06 | – | – | – | – | – | –
C16A U65G | 0.000487 ± 7.9e-05 | 3310 ± 1000 | – | 8.78e-05 ± 1.8e-05 | 0.000156 ± 5.5e-05 | 0.000382 ± 5.9e-05 | –
A15C A53U | 0.00401 ± 0.00066 | 1690 ± 400 | 9.37e-05 ± 1.2e-05 | 0.00119 ± 0.00025 | 0.00184 ± 0.00036 | 0.00391 ± 0.00049 | 0.000395 ± 9e-05
C16U G44U | 0.000229 ± 2.9e-05 | 1160 ± 450 | – | 7.8e-05 ± 1.7e-05 | 0.000216 ± 4.3e-05 | 0.000197 ± 2.3e-05 | –
A33U C71G | 1.4e-05 ± 2.4e-06 | – | – | – | – | 1.47e-05 ± 7.1e-06 | –
A6G | 0.00068 ± 9.8e-05 | 2660 ± 490 | < 1e-05 | 0.00013 ± 2.3e-06 | 0.000467 ± 4.5e-05 | 0.000533 ± 2.4e-05 | 4.17e-05 ± 1.6e-06
A14G U45A | 0.077 ± 0.015 | 1340 ± 310 | 0.00233 ± 0.00047 | 0.0331 ± 0.0099 | 0.0452 ± 0.016 | 0.0701 ± 0.026 | 0.00764 ± 0.0014
A15G A48U | 0.000853 ± 8.9e-05 | 3930 ± 590 | – | 0.000113 ± 1.4e-05 | 0.000349 ± 4.7e-05 | 0.000604 ± 8.6e-05 | 3.92e-05 ± 9.3e-06
C50U C61G | 1.39e-05 ± 3.3e-06 | – | – | – | – | – | –
G13U G40C | 8.27e-05 ± 6.4e-06 | 994 ± 460 | – | – | 4.94e-05 ± 1.9e-05 | 7.64e-05 ± 9.8e-06 | –
C10A G38C | < 1e-05 | – | – | < 1e-05 | – | – | < 1e-05
